According to article PMC5636754, “Structural and biochemical characterization of DAXX-ATRX interaction” (Protein & Cell, 2017):

B1: ATRX_(1,265–1,285), α-helix frame only (αDID), wild type peptide [human] / DAXX helical bundle (DHB) domain of death domain-associated protein (DAXX), aa 55-144 [not stated] (parent complex)
chain 1: NDPENRIAKKMLLEEIKANLS
chain 2: GKKCYKLENEKLFEEFLELCKMQTADHPEVVPFLYNRQQRAHSLFLASAEFCNILSRVLSRARSRPAKLYVYINELCTVLKAHSAKKKLN

Variants of: B1
Assay: ITC
chain 1 E4Q showed a Kd of 5.6 µM.
In the case of chain 1 K9A, the Kd is reported as 2.3 µM.
For chain 1 D2N, the Kd was 7 µM.
Variant chain 1 E15Q has a Kd of 3.2 µM.
